Measured values from publication PMC5068707 (PLoS Pathogens, 2016).

How the values were obtained:
Assay in all cases: ITC
SUDV VP30 CTD (139–288) [1] = biological target: T1, SUDV VP30 CTD (139–288) (Sudan ebolavirus (SUDV), UniProt Q5XX03 139-288)
T1 chain: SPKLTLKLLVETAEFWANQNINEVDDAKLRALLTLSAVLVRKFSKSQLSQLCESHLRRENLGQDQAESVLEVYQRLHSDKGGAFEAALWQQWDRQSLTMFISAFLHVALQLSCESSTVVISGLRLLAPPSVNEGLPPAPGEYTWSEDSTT

[2] = biological target: T2, Ebola virus VP30 C-terminal domain (amino acids 139–288) (Ebola virus (EBOV), UniProt Q05323 139-288)
T2 chain: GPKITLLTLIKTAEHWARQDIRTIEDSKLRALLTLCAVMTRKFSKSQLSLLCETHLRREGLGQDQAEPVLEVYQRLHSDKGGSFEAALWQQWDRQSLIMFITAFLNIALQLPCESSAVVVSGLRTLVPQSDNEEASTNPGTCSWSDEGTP

MARV VP30 CTD (146–281) = biological target: T3, MARV VP30 CTD (146–281) (Marburg virus (MARV), UniProt P35258 146-281)
T3 chain: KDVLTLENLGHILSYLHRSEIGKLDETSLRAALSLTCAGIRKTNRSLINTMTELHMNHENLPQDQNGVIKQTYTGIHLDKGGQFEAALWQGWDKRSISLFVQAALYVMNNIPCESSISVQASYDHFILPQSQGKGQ

SUDV VP30 CTD (139–288) [3] = biological target: T4, SUDV VP30 CTD (139–288) (Sudan ebolavirus (SUDV), UniProt Q5XX03 139-288); conditions: both partners purified
T4 sequence: T1 chain

Row | Binder | Kd (SUDV VP30 CTD (139–288) [1]) | Kd [2] | Kd (MARV VP30 CTD (146–281)) | binding result (SUDV VP30 CTD (139–288) [3])
1 | NTPTVAPPAPVYKDTGVD [SUDV NP peptide (600–617) fused to T4 lysozyme] | 7.98 µM | 9.5 µM | 70 µM | 
2 | RTPTVAPPAPVYRDHSEK [EBOV NP 600–617 fused to T4 lysozyme] | 4.9 µM |  | 35 µM | binds
3 | EQGVDLPPPPLYAQEKRQ [MARV NP peptide (552–569) fused to T4 lysozyme] | 27.1 µM |  |  | 
